± gives the standard deviation of the averaged measurements.
Tested on: ATP
Test: switch fluorescence ratio, 500 uM ATP over buffer (Cy3 cluster intensity, sum of 5 cycles each) (fold (ratio)); higher = stronger signal-on switching upon ATP binding; sequences stand for … in TCGTCGGCAGCGTCAGATGTGTATAAGAGACAGTTTTTTTTTTTTTTTTTTTTTTTTT…TC
Settings: aptamer strand: ATP DNA aptamer (quencher-CACCTGGGGGAGTATTGCGGAGGAAGG + anchor), 100 nM annealed; ATP concentration: 500 uM
How it was run: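 Clusters with intensities outside 100-1000 RFU were excluded. The remaining Cy3-labelled switching-strand clusters on a modified Illumina MiSeq flow-cell had been annealed to 100 nM quencher-labelled ATP aptamer and imaged in selection buffer, then after 15 min with 500 uM ATP at 22 °C, for five cycles separated by NaOH stripping and re-annealing. The fluorescence ratio, averaged per switch-domain sequence, is each cluster's summed target-cycle Cy3 intensity over its summed buffer-cycle Cy3 intensity.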
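Note: ATP exposure 15 min at 22 °C before imaging.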

| Sequence | switch fluorescence ratio |
| --- | --- |
| TCGGCTGGAA | 1.027 ± 0.0025 |
| TCGGCTGGGG | 0.991 ± 0.014 |
| TCGGCTTGTT | 1.02 ± 0.02 |
| TCGGGAAGAG | 0.98832 ± 5e-05 |
| TCGGGAAGGA | 1.01 ± 0.031 |
| TCGGGAGAAT | 1.01 ± 0.015 |
| TCGGGAGGCT | 1 ± 0.028 |
| TCGGGAGTGG | 0.9905 ± 0.0016 |
| TCGGGATACG | 1.14 ± 0.021 |
| TCGGGCATAG | 1.06 ± 0.046 |
| TCGGGCGATG | 0.983 ± 0.036 |
| TCGGGCGGGG | 1.036 ± 0.0098 |
| TCGGGGCACG | 0.993 ± 0.052 |
| TCGGGGCAGG | 0.988 ± 0.013 |
| TCGGGGCAGT | 2.01 ± 1.4 |
| TCGGGGCTCC | 2.87 ± 2.6 |
| TCGGGGGACT | 0.9827 ± 0.0063 |
| TCGGGGGAGG | 0.983 ± 0.022 |
| TCGGGGGCTT | 0.996 ± 0.015 |
| TCGGGGGGCC | 1.02 ± 0.074 |
| TCGGGGGGGA | 1.06 ± 0.14 |
| TCGGGGGTGA | 1 ± 0.021 |
| TCGGGGGTTC | 1.06 ± 0.027 |

| Sequence | switch fluorescence ratio |
| --- | --- |
| TCGGGGTAAG | 1.03 ± 0.015 |
| TCGGGGTGAC | 1.01 ± 0.018 |
| TCGGGGTTTT | 1.02 ± 0.036 |
| TCGGGTCAGT | 1 ± 0.034 |
| TCGGGTGTGT | 0.9889 ± 0.009 |
| TCGGGTTCCG | 0.963 ± 0.019 |
| TCGGGTTCGG | 0.992 ± 0.032 |
| TCGGGTTGAC | 1.02 ± 0.025 |
| TCGGGTTGG | 1.03 ± 0.02 |
| TCGGTAGGGC | 1.025 ± 0.0089 |
| TCGGTAGTGG | 1 ± 0.028 |
| TCGGTATATA | 1.03 ± 0.033 |
| TCGGTCGACG | 0.962 ± 0.027 |
| TCGGTCGATT | 1.019 ± 0.0031 |
| TCGGTGATAC | 4.52 ± 1.3 |
| TCGGTTAATG | 1 ± 0.042 |
| TCGGTTGGGA | 0.986 ± 0.038 |
| TCGGTTTAGG | 1.011 ± 0.0076 |
| TCGGTTTCAA | 1.009 ± 0.0056 |
| TCGTAAACGG | 1.01 ± 0.02 |
| TCGTACAGGG | 1.03 ± 0.047 |
| TCGTACGCTA | 3.38 ± 0.084 |
| TCGTAGTGGC | 1.11 ± 0.1 |

| Sequence | switch fluorescence ratio |
| --- | --- |
| TCGTAGTGGG | 1.01 ± 0.054 |
| TCGTAGTTGC | 1.24 ± 0.027 |
| TCGTATAAGG | 0.982 ± 0.037 |
| TCGTATAGAG | 1 ± 0.017 |
| TCGTATATTA | 1.02 ± 0.013 |
| TCGTATGATA | 0.968 ± 0.036 |
| TCGTATTGGT | 1.02 ± 0.023 |
| TCGTATTGTG | 0.975 ± 0.032 |
| TCGTCCGGAG | 1.55 ± 0.016 |
| TCGTCCGGCG | 0.96503 ± 0.00055 |
| TCGTCGAACG | 0.988 ± 0.04 |
| TCGTGCAGTT | 1.01 ± 0.015 |
| TCGTGGATGG | 1 ± 0.026 |
| TCGTGGGAAG | 0.9721 ± 0.0062 |
| TCGTGGGGGG | 0.991 ± 0.031 |
| TCGTGGGTAT | 0.998 ± 0.025 |
| TCGTGTACGG | 1.04 ± 0.016 |
| TCGTGTAGCT | 1 ± 0.03 |
| TCGTGTGTTC | 1.022 ± 0.0047 |
| TCGTGTTTTC | 1.03 ± 0.083 |
| TCGTTATGTG | 0.9829 ± 0.0085 |
| TCGTTGGATG | 0.9829 ± 0.0013 |
| TCGTTGGGAT | 0.986 ± 0.053 |

| Sequence | switch fluorescence ratio |
| --- | --- |
| TCGTTGGGGT | 0.987 ± 0.029 |
| TCGTTTGCGT | 0.984 ± 0.032 |
| TCGTTTGGAG | 0.998 ± 0.022 |
| TCGTTTGGGG | 1.05 ± 0.061 |
| TCGTTTGGGT | 0.978 ± 0.035 |
| TCGTTTTCCT | 1.02 ± 0.043 |
| TCTAAATCTT | 1.01 ± 0.011 |
| TCTAAGTAAC | 1 ± 0.025 |
| TCTAAGTATT | 1.02 ± 0.026 |
| TCTAAGTTGT | 1.002 ± 0.0058 |
| TCTAATTGGG | 1.01 ± 0.037 |
| TCTAATTTCC | 1.05 ± 0.045 |
| TCTAGTTTAT | 0.987 ± 0.033 |
| TCTATAATGT | 0.965 ± 0.025 |
| TCTATACTTT | 1 ± 0.021 |
| TCTATGGCTA | 1.03 ± 0.03 |
| TCTATGGGGG | 0.986 ± 0.019 |
| TCTATGGTGA | 1.0391 ± 0.00096 |
| TCTATTGTAA | 0.991 ± 0.049 |
| TCTATTTGCA | 1 ± 0.042 |
| TCTATTTGTA | 0.9993 ± 0.0071 |
| TCTATTTTGT | 0.988 ± 0.017 |
| TCTCACGGAA | 1.68 ± 0.19 |

| Sequence | switch fluorescence ratio |
| --- | --- |
| TCTCGACTCA | 0.999 ± 0.02 |
| TCTCGCGGGA | 0.97 ± 0.023 |
| TCTCGGGGCG | 1 ± 0.055 |
| TCTCTTCCGT | 1.22 ± 0.056 |
| TCTGAATTCA | 0.972 ± 0.026 |
| TCTGACGGTG | 1.01 ± 0.017 |
| TCTGAGGGTT | 1.13 ± 0.12 |
| TCTGAGTAGG | 1 ± 0.037 |
| TCTGATATAG | 1 ± 0.003 |
| TCTGATGAAT | 1.02 ± 0.034 |
| TCTGCCACCT | 1.023 ± 0.0075 |
| TCTGCTAAAG | 1.01 ± 0.022 |
| TCTGCTAAGG | 0.98406 ± 0.00079 |
| TCTGCTAGTT | 1.02 ± 0.021 |
| TCTGCTTGAG | 1.03 ± 0.022 |
| TCTGGAGTT | 1.077 ± 0.005 |
| TCTGGATTGT | 0.97294 ± 3.9e-05 |
| TCTGGCCTTC | 1.09 ± 0.1 |
| TCTGGCGGGG | 1.21 ± 0.38 |
| TCTGGCGTTG | 0.983 ± 0.01 |
| TCTGGGACGT | 0.9824 ± 0.0033 |
| TCTGGGCAGC | 1.04 ± 0.05 |
| TCTGGGGATG | 0.974 ± 0.072 |

| Sequence | switch fluorescence ratio |
| --- | --- |
| TCTGGGGCGT | 1.007 ± 0.0086 |
| TCTGGGGCTG | 0.969 ± 0.016 |
| TCTGGGGGGA | 1.01 ± 0.019 |
| TCTGGGGGTG | 1.02 ± 0.059 |
| TCTGGGGTGT | 1.13 ± 0.18 |
| TCTGGGTATG | 0.988 ± 0.016 |
| TCTGGGTGGT | 0.977 ± 0.042 |
| TCTGGTAGAG | 1.02 ± 0.023 |
| TCTGGTAGTG | 1.03 ± 0.035 |
| TCTGGTCGCT | 1.018 ± 0.01 |
| TCTGTATCTA | 0.993 ± 0.021 |
| TCTGTCAAGG | 1 ± 0.034 |
| TCTGTCCCTT | 1.01 ± 0.024 |
| TCTGTGCAGG | 1 ± 0.015 |
| TCTGTGCTGG | 0.98 ± 0.024 |
| TCTGTGGCAA | 1.18 ± 0.28 |
| TCTGTGGCTG | 1.05 ± 0.1 |
| TCTGTGGTGT | 1.026 ± 0.0028 |
| TCTGTTATCG | 0.983 ± 0.043 |
| TCTGTTCTT | 1 ± 0.023 |
| TCTGTTGAAT | 1.01 ± 0.072 |
| TCTGTTGGGG | 0.992 ± 0.038 |
| TCTTAAGGGC | 0.972 ± 0.01 |

| Sequence | switch fluorescence ratio |
| --- | --- |
| TCTTAATGTA | 0.985 ± 0.015 |
| TCTTACAGTA | 1.09 ± 0.04 |
| TCTTAGACAT | 0.9646 ± 0.0028 |
| TCTTATAAAC | 1.02 ± 0.023 |
| TCTTATCTGG | 0.972 ± 0.012 |
| TCTTATTGG | 1.02 ± 0.028 |
| TCTTATTGGG | 0.995 ± 0.042 |
| TCTTCACTAA | 1 ± 0.052 |
| TCTTCGACCG | 1.31 ± 0.28 |
| TCTTCGGCGA | 1.46 ± 0.16 |
| TCTTCGGTTT | 1.11 ± 0.12 |
| TCTTGAAGG | 0.953 ± 0.023 |
| TCTTGAGCTT | 1.04 ± 0.03 |
| TCTTGCCCTG | 0.977 ± 0.058 |
| TCTTGGAGAA | 1.05 ± 0.06 |
| TCTTGGATGG | 0.986 ± 0.04 |
| TCTTGGCTTT | 0.976 ± 0.019 |
| TCTTGGGATT | 0.981 ± 0.0029 |
| TCTTGGGGGG | 1 ± 0.019 |

— the supplement of paper PMC10126150
